Target: Stabilized soluble Omicron BA.1 spike (SARS-CoV-2)
Test: cryo-EM structure

Work on “Stabilized soluble Omicron BA.1 spike (domain or fragment)” yielded a stoichiometry N of 3.
